Consider three molecules from patent publication US20230002478A1.

A word on the IC50: it is the concentration needed to halve the response being measured. As a reminder, the Kd is the concentration at which binding is half-saturated. Lower therefore signals a tighter complex.

What all share (conditions): remark: other sources report otherwise
For assay [1], the target named is biotinylated SARS-CoV-2 spike RBD (Ancestral) (SARS-CoV-2), P0DTC2. Kind of assay: AlphaLISA, inhibition of ACE2-muFc / biotinylated spike complex.
The target in assay [2] is biotinylated D614G SARS-CoV-2 spike trimer (SARS-CoV-2), P0DTC2. Described as above.
In assay [3] the target is S1 RBD fused to mouse Fc, Beta variant (SARS-CoV-2), P0DTC2. The assay is described as follows: flow cytometry: inhibition of S1 RBD-mFc binding to Vero E6 cells (ACE2). On the technique in general: In flow cytometry, cells or beads pass a laser one at a time.
For assay [4], the target named is SARS-CoV-2 S Trimer (SARS-CoV-2), P0DTC2. Kind of assay: SPR. A general note: In SPR one partner is held on a chip, and binding of the other changes the refractive index at the surface.
Assay [5] deals with SARS-CoV-2 S RBD (N501Y) (SARS-CoV-2), P0DTC2. The assay is described as follows: SPR.
The target in assay [6] is SARS-CoV-2 S RBD (E484K) (SARS-CoV-2), P0DTC2. Kind of assay: SPR.
The target in assay [7] is SARS-CoV-2 S1 (D614G) (SARS-CoV-2), P0DTC2. The assay is described as follows: SPR.
For assay [8], the target named is SARS-CoV-2 S RBD (K417N) (SARS-CoV-2), P0DTC2. The assay is described as follows: SPR.
Assay [9] deals with SARS-CoV-2 S RBD (Y453F) (SARS-CoV-2), P0DTC2. The assay is described as follows: SPR.
In assay [10] the target is SARS-CoV-2 S1-Fc (South Africa 178-08) (SARS-CoV-2), P0DTC2. Kind of assay: SPR.
The target of assay [11] is SARS-CoV-2 S RBD (N439K) (SARS-CoV-2), P0DTC2. The assay is described as follows: SPR.
For assay [12], the target named is biotinylated SARS-CoV-2 spike trimer, Delta (SARS-CoV-2), P0DTC2. Kind of assay: AlphaLISA, inhibition of ACE2-muFc / biotinylated spike complex. Background: Bead proximity is the source of the signal in Alpha formats.
Assay [13] concerns the target S1 RBD-mFc (Acro SPD-05259) (SARS-CoV-2), P0DTC2. The assay is described as follows: flow cytometry: inhibition of S1 RBD-mFc binding to Vero E6 cells (ACE2).

B1: antibody 202-03 (Fc fusion)
chain: EVQLVESGGGLVQPGGSLRLSCAASGFTFSPSWMGWFRQAPGKEREFVATINEYGGRNYADSVKGRFTISADNSKNTAYLQMNSLKPEDTAVYYCARVDRDFDYWGQGTLVTVSS
Consider B1, for which the IC50 in [1] amounted to 8.3 nM; in assay [2], 4 nM; in assay [3], 0.587 nM.

B2: 6-3 (Fc fusion)
chain: EVQLVESGGGLVQPGGSLRLSCAASGFTFSPSWMGWFRQAPGKEREFVATINEYGGRNYADSVKGRFTISADNSKNTAYLQMNSLKPEDTAVYYCARVDRDFDYWGQGTLVTVSS
Turning to B2, the Kd in assay [4] stood at 2.4 nM; in assay [5], 0.71 nM; in [6], 4.6 nM; in [7], 19 nM; in assay [8], 5.9 nM; in [9], 5.7 nM. The results for the Kd in [10] and in [11] were 6.1 nM and 9.5 nM, respectively.

B3: antibody 339-031 (Fc fusion)
chain: EVQLVESGGGLVQPGGSLRLSCAASGSTFSINAMGWFRQAPGKEREFVAGITSSGGYTNYADSVKGRFTISADNSKNTAYLQMNSLKPEDTAVYYCAADGVPEYSDYASGPVWGQGTLVTVSS
As for B3, the IC50 in [1] is 5.6 nM; in assay [12] it was 3 nM; in assay [2], 2.1 nM; in [13], 1.25 nM; in assay [3], greater than 100 nM.
